Data published in article PMC12109740, “Modulation of Kv Channel Gating by Light-Controlled Membrane Thickness” (Biomolecules, 2025).

Target: the molecule itself
Test: SEC; Superdex 200 Increase 10/300 GL, 100 mM KCl, 25 mM Tris pH 8.0, in detergent (DM by the methods, DDM by the results); peak at 11 mL

B1: KvAP wild type (voltage-gated potassium channel from Aeropyrum pernix) (natural protein)
chain: GGRVRNIGDVMEHPLVELGVSYAALLSVIVVVVEYTMQLSGEYLVRLYLVDLILVIILWADYAYRAYKSGDPAGYVKKTLYEIPALVPAGLLALIEGHLAGLGLFRLVRLLRFLRILLIISRGSKFLSAIADAADKIRFYHLFGAVMLTVLYGAFAIYIVEYPDPNSSIKSVFDALWWAVVTATTVGYGDVVPATPIGKVIGIAVMLTGISALTLLIGTVSNMFQKILVGEPEPSCSPAKLAEMVSSMSEEEFEEFVRTLKNLRRLENSMK
notes: KvAP, voltage-gated potassium channel of Aeropyrum pernix, wild type; also called Kv channel from Aeropyrum pernix; source: E. coli C43 (DE3), pET21a-derived vector, solubilised in detergent, purified (Ni-NTA, SEC on Superdex 200 Increase)
- stoichiometry N: 4
